According to article PMC9055814:

Molecular target: SlGAMYB2-GST (Solanum lycopersicum, UniProt A0A3Q7H2U6 1-504)
Test: EMSA

Binder | binding result
SlGA3ox2 probe P1 (dsDNA) DNA 1: GCACTTAAGATCATAATTAATGATTTCAGTTACCGCAATAAAATG DNA 2: CATTTTATTGCGGTAACTGAAATCATTAATTATGATCTTAAGTGC | no binding
SlGA3ox2 probe P4 (dsDNA) DNA 1: CTATAATTGAATTGAATTCAGTTAACTGTCGAAATTGGAATGGTA DNA 2: TACCATTCCAATTTCGACAGTTAACTGAATTCAATTCAATTATAG | no binding
SlGA3ox1 probe P5 (dsDNA) DNA 1: TTAACAAAGACAAATTAGTTGATTGGTTAAAGACAATCAATATGT DNA 2: ACATATTGATTGTCTTTAACCAATCAACTAATTTGTCTTTGTTAA | no binding
SlGA3ox2 probe P3 (dsDNA) DNA 1: CCCATACAACTTTGCGATGTTAATGGTTATAACTATAAAGGGAGA DNA 2: TCTCCCTTTATAGTTATAACCATTAACATCGCAAAGTTGTATGGG | binds
SlGA3ox2 probe P2 (dsDNA) DNA 1: CAATTATTTGTCAATATTTGGTTAAATACTTGTTTAATAGTATAC DNA 2: GTATACTATTAAACAAGTATTTAACCAAATATTGACAAATAATTG | binds
